Data from US20090186027A1 (RAMOT AT TEL AVIV UNIVERSITY, published 2009).

Target: T1, β-amyloid peptide 1-40 (UniProt P05067 672-711)
T1 construct: domain: beta amyloid peptide 1-40; Residues 1-40 are counted on Aβ, not on the APP entry; Coated after overnight incubation at 37 C (ELISA) or pre-aggregated for a week (ThT assay); also called Aβp 1-40; AβP 1-40
Experiment: ELISA, constant 10 µM Aβ 1-40 coated, 3.125-25 µM antibody; reference 37L
Procedure: Wells were washed and blocked with 3% milk powder in PBS for 1 hr at 37° C. […] The rest of the ELISA assay was performed as described above.

B1: 37H (single domain antibody, heavy chain variable domain of scFv RCK37) (other)
VH: MAHVQFVQSGGDLVKPGGSLKLSCAASGFTFSSYGMSWVRQTPDKRLEWVATISSGGSYTYYPDSVKGRFTISRDNAKNTLYLQMSSLKSEDTAMYYCARHNYGSSYPYAMDYWGQGTPVTVSA
notes: also called 37H nanobody; nanobody 37H; not shown: C-terminal His tag from the pET28/pET21 vector
fold stronger binding than 37L: 5 times
